Values belong to the molecule of their own block, whether it stands above or below them.
Tests used:
[1] = target: T1, AtGlcAK (Arabidopsis thaliana, UniProt Q93ZC9); conditions: substrate inhibition; 5 mM GlcA, 5 mM MgCl2, 100 mM HEPES pH 7.5, 25 °C
T1 construct: gene GLCAK1
T1 sequence (Q93ZC9 1-362): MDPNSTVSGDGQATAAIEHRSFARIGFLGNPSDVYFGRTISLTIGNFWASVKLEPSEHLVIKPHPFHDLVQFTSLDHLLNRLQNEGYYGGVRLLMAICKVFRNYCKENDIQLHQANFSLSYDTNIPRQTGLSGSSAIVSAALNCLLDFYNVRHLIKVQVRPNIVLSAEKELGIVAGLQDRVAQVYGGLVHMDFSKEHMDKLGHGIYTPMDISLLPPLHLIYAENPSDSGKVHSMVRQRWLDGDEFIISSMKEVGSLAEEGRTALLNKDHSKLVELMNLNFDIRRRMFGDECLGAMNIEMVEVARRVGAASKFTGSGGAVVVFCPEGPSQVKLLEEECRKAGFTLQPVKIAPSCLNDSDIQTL
Text: initial rates by multiplexed capillary electrophoresis; uncompetitive substrate-inhibition fit on AtGlcAK

[2] = substrate: O=P(O)(O)O[C@H]1O[C@H](CO)[C@@H](O)[C@H](O)[C@H]1O; assay: initial rates by multiplexed capillary electrophoresis; Michaelis-Menten fit; assay type: biochemical, Arabidopsis thaliana; conditions: 5 mM UTP, 15 mM MgCl2, 100 mM HEPES pH 8, 25 °C
Text: (§1) initial rates by multiplexed capillary electrophoresis; Michaelis-Menten fit on AtUSP

[3] = substrate: O=c1ccn([C@@H]2O[C@H](COP(=O)(O)OP(=O)(O)OP(=O)(O)O)[C@@H](O)[C@H]2O)c(=O)[nH]1; assay: as above; assay type: biochemical, Arabidopsis thaliana; conditions: 5 mM Glc-1-P, 15 mM MgCl2, 100 mM HEPES pH 8, 25 °C
Text: as §1

[4] = substrate: Nc1ncnc2c1ncn2[C@@H]1O[C@H](COP(=O)(O)OP(=O)(O)OP(=O)(O)O)[C@@H](O)[C@H]1O; assay: purified protein; conditions: apparent, substrate-inhibition fit, 5 mM GlcA, 5 mM MgCl2, 100 mM HEPES pH 7.5, 25 °C

AtGlcAK [1]: 2.87 mM
Molecule: Nc1ncnc2c1ncn2[C@@H]1O[C@H](COP(=O)(O)OP(=O)(O)OP(=O)(O)O)[C@@H](O)[C@H]1O [ATP]

B1: AtUSP (Arabidopsis thaliana) (protein)
chain: ASTVDSNFFSSVPALHSNLGLLSPDQIELAKILLENGQSHLFQQWPELGVDDKEKLAFFDQIARLNSSYPGGLAAYIKTAKELLADSKVGKNPYDGFSPSVPSGENLTFGTDNFIEMEKRGVVEARNAAFVLVAGGLGERLGYNGIKVALPRETTTGTCFLQHYIESILALQEASNKIDSDGSERDIPFIIMTSDDTHSRTLDLLELNSYFGMKPTQVHLLKQEKVACLDDNDARLALDPHNKYSIQTKPHGHGDVHSLLYSSGLLHKWLEAGLKWVLFFQDTNGLLFNAIPASLGVSATKQYHVNSLAVPRKAKEAIGGISKLTHVDGRSMVINVEYNQLDPLLRASGFPDGDVNCETGFSPFPGNINQLILELGPYKDELQKTGGAIKEFVNPKYKDSTKTAFKSSTRLECMMQDYPKTLPPTARVGFTVMDIWLAYAPVKNNPEDAAKVPKGNPYHSATSGEMAIYRANSLILQKAGVKVEEPVKQVLNGQEVEVWSRITWKPKWGMIFSDIKKKVSGNCEVSQRSTMAIKGRNVFIKDLSLDGALIVDSIDDAEVKLGGLIKNNGWTMESVDYKDTSVPEEIRIRGFRFNKVEQLEKKLTQPGKFSVED
notes: full-length synthetic codon-optimized gene, pET-16b(+), N-terminal His10 tag, E. coli BL21(DE3), IMAC
Km [2]: 580 µM | Km [3]: 440 µM

B2: AtGlcAK (Arabidopsis thaliana) (protein)
chain: T1 sequence (Q93ZC9 1-362)
Km [4]: 8560 µM

Reference: article PMC6888640, “Key Factors for a One-Pot Enzyme Cascade Synthesis of High Molecular Weight Hyaluronic Acid” (International Journal of Molecular Sciences, 2019)
